Numbered stars: 1 amine (or outer) side, 2 acyl side, 3 side chain; on linkers, the order of the positions; unused ones are H or OH. Square brackets hold non-standard residues; d marks the D form. Ends that are not written are not given here. Lys(Me3) = C[N+](C)(C)CCCC[C@H](N)C(=O)O; Ethylenediamine = C(CN[*:2])N[*:1]; 5‑FAM = fluorescent label
Molecular target: T1, E. coli expressed BAHD1(aa:588-780) (UniProt Q8TBE0 588-780)
T1 chain: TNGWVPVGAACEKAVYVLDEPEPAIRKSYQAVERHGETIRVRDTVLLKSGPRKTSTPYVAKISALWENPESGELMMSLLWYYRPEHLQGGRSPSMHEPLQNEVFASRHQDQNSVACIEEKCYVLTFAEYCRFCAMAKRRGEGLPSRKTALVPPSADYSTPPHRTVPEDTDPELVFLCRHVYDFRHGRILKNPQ
Assay: FP

Kd: 700 nM
Binder: PRKQLATKAAR[Lys(Me3)]SAPATGG-{Ethylenediamine-4‑Abu-5‑FAM} [H3 16-35 K27me3 peptide]

Reference: paper doi:10.1101/2022.07.22.501112 (2022)
